According to US20040170976A1, “Solubility reporter gene constructs” (priority 2000, published 2004):

B1: TM0574: T. maritima S-adenosylmethionine tRNA ribosyltransferase (queA) (protein, UniProt Q9WZ44 1-335, looked up)
S-adenosylmethionine:tRNA …: MKVSEFDYELPPELIAQEPVEPRDASRLMVLHRKTQRIEHRIFREIIEYLEPGDLLVLNVSKVIPARLYARKKTGASIEILLIERLEEGIWKCLVRPGQKVKKGTELVIDEDLSAVCLGRGEDGTRILKFQPQDDRLIFEKGRTPLPPYIKNEVPLERYQTVYAKEEGSVAAPTAGLHFTPELIEKLKKKGVQFAEVVLHVGIGTFRPVKVEEVEKHKMHEEFYQVPKETVRKLRETRERGNRIVAVGTTTVRTLETIARLPEQEEYVGKTDLFIYPPFEFKLVDALVTNFHLPRSTLLMLVAAFAGKDFVMEAYREAVKRRYRFFSFGDAMLIL
B2: TM0556: T. maritima 3-isopropylmalate dehydrogenase (leuB) (protein, UniProt Q9WZ26 1-354, looked up)
3-isopropylmalate …: MKIAVLPGDGIGPEVVREALKVLEVVEKKTGKTFEKVFGHIGGDAIDRFGEPLPEETKKICLEADAIFLGSVGGPKWDDLPPEKRPEIGGLLALRKMLNLYANIRPIKVYRSLVHVSPLKEKVIGSGVDLVTVRELSYGVYYGQPRGLDEEKGFDTMIYDRKTVERIARTAFEIAKNRRKKVTSVDKANVLYSSMLWRKVVNEVAREYPDVELTHIYVDNAAMQLILKPSQFDVILTTNMFGDILSDESAALPGSLGLLPSASFGDKNLYEPAGGSAPDIAGKNIANPIAQILSLAMMLEHSFGMVEEARKIERAVELVIEEGYRTRDIAEDPEKAVSTSQMGDLICKKLEEIW
B3: TM0688: T. maritima glyceraldehyde-3-phosphate dehydrogenase (gap) (protein, UniProt P17721 2-333, looked up)
Glyceraldehyde-3-phosphate …: ARVAINGFGRIGRLVYRIIYERKNPDIEVVAINDLTDTKTLAHLLKYDSVHKKFPGKVEYTENSLIVDGKEIKVFAEPDPSKLPWKDLGVDFVIESTGVFRNREKAELHLQAGAKKVIITAPAKGEDITVVIGCNEDQLKPEHTIISCASCTTNSIAPIVKVLHEKFGIVSGMLTTVHSYTNDQRVLDLPHKDLRRARAAAVNIIPTTTGAAKAVALVVPEVKGKLDGMAIRVPTPDGSITDLTVLVEKETTVEEVNAVMKEATEGRLKGIIGYNDEPIVSSDIIGTTFSGIFDATITNVIGGKLVKVASWYDNEYGYSNRVVDTLELLLKM
B4: TM0294: T. maritima glutamate 5-kinase (proB) (protein, UniProt Q9WYD0 1-353, looked up)
Glutamate 5-kinase: MIMKVVVKVGSNLLVGSSGLRKSYIAELCREVARLKSQGHEISIITSGARAAGFTYLGKGKRTQDLHIKQALCAVGQVQLMKVYENAFDFYGIKIAQILLTRDTFSNRKRYLNLRNTLIGLSEFDVVPIVNENDTVATEEITLGDNDTLAAMFSIAWDADFLVLFTTVDGVIDENGKLVERFDESVKLKDMGKSSWGTGGIRSKIESALMASRCGVKATICSGNDVSNLTRFVKGEPVGTVFEPQGRLKAKKAWIAFLSEPAGKIYVNKGAEEALKSGNSLLPVGVTGVEGTFDVGDVVEIVNEEGELVGRGIVNYSSSDLEKIAGHKSSDLKKILGYEGNKVVVHIDNMWVA

test: Fractionation of soluble and insoluble recombinant protein by cell lysis and centrifugation / SDS-PAGE; format: physicochemical; details: T. maritima proteins expressed in E. coli; SDS-PAGE of soluble and insoluble fractions
Experimental: E. coli strains MG1655 (F^−lam rph1) and KY1429 (F- araD139 Δ(argF-lac)169 lam flhD5301 fruA25 relA1 rpsL150 zhh50::Tn10 rpoH606(ts) deoC1) were transformed with expression plasmids encoding M36881 (LCK) or M86400 (PLA) for expression profiling. Cells were cultured at 37° C. in Luria Broth containing ampicillin. Protein expression was induced by addition of L-arabinose to a final concentration of 0.1% for 1 hour. KY1429 cells were cultured as above except initial growth was performed at 32° C. followed by a shift to 42° C. for non-permissive expression of rpoH606. Top10 cells (F^−-mcrA Δ(mrr-hsdRMS-mcrBC) φ80lacZΔM15 ΔlacX74 deoR recA1 araD139 Δ(ara-leu)7697 galU galK rpsL endA1 nupG) containing the ibpAB promoter fusion (pHK57), were transformed with expression constructs listed above. Beta-galactosidase assays were performed essentially as described by Miller (24). Fractionation of soluble and insoluble proteins was performed by centrifugation. Cultures were resuspended in 50 mM Tris pH 7.9, 50 mM NaCl, 1 mM MgCl2, 3 mM methionine and sonicated for 2 minutes on ice. Cell debris and insoluble protein aggregates were pelleted by centrifugation at 3000×g for 15 minutes. The soluble fraction was removed and the pellets resuspended in an equivalent volume of lysis buffer.

Molecule	pre-determined expression characteristics
B1	Soluble
B2	Soluble
B3	Insoluble

test: pI of T. maritima proteins; format: physicochemical, Thermotoga maritima; details: not given

Molecule	pI
B1	8.61
B2	5.44
B3	6.21
B4	6.92
